Results on 5 substances are retold here after paper PMC10141581.

One experiment concerns the target FLAG-CRBN (human) (UniProt Q96SW2). Briefly: co-IP; 20 μM purified Myc-14-3-3ζ added to lysate of HEK293T cells expressing FLAG-CRBN (Calyculin A, no phosphatase), 1 h; ANTI-FLAG M2 affinity gel; 50 mM Tris pH 7.5, 150 mM NaCl; Western blot with α-FLAG and α-myc. In general terms: Immunoblotting shows a protein as a band on a membrane.
A further experiment addresses HSPB6 (Homo sapiens) (UniProt O14558). As to conditions: cited from earlier work.
Experiment [1] concerns the target 14-3-3ζ (UniProt P63104). Briefly: SEC-MALS of homodimer, 50 µM. As to conditions: reference: 14-3-3ζ wild type; sites S58.
Experiment [2] deals with 14-3-3ζ (UniProt P63104). Briefly: His-tag co-purification after E. coli co-expression. As to conditions: reference: HSPB6 wild type (Ser16); sites S16.
The target of experiment [3] is HSPB6-nhpSer16 (UniProt O14558). Briefly: SEC-MALS; co-purified 14-3-3ζ/HSPB6 complexes, or purified HSPB6 mixed with 14-3-3ζ; Superdex 200 10/300 GL; 50 mM Tris pH 7.4, 150 mM NaCl, 0.5 mM TCEP; room temperature; samples at 50 μM. For orientation: Size exclusion chromatography separates by hydrodynamic size, large species first.
The target in experiment [4] is HSPB6-pSer16 (UniProt O14558). The description is as above.
Experiment [5] deals with HSPB6-nhpSer16 (UniProt O14558). Briefly: AUC; sedimentation equilibrium; 14.3, 7.2 and 3.6 μM; 8,000, 10,000 and 15,000 rpm; 5 °C; 50 mM Tris pH 7.4, 150 mM NaCl, 1 mM TCEP; global fit to A + B ↔ AB with fixed masses of a HSPB6 dimer and a 14-3-3ζ dimer.
In experiment [6] the target is HSPB6-pSer16 (UniProt O14558). The description is as above.
Another experiment deals with 14-3-3ζ WT (human) (UniProt P63104). Briefly: SEC-MALS; 14-3-3ζ variants alone, injected at 50 μM initial concentration; Superdex 200 10/300 GL; 50 mM Tris pH 7.4, 150 mM NaCl, 0.5 mM TCEP; room temperature; dimer to monomers.

14-3-3ζ WT, sequence (P63104 1-230): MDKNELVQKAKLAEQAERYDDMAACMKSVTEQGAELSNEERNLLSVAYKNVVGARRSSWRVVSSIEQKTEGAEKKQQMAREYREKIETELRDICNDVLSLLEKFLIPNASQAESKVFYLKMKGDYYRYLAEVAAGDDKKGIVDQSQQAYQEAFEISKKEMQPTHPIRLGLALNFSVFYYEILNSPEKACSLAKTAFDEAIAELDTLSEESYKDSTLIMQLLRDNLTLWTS
HSPB6-pSer16, sequence (O14558 whole entry): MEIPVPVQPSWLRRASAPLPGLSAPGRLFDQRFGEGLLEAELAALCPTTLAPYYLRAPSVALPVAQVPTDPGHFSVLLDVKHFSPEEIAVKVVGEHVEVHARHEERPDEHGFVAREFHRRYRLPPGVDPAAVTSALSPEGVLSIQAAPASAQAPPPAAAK
myc-14-3-3ζ nhpSer58, sequence (P63104 whole entry): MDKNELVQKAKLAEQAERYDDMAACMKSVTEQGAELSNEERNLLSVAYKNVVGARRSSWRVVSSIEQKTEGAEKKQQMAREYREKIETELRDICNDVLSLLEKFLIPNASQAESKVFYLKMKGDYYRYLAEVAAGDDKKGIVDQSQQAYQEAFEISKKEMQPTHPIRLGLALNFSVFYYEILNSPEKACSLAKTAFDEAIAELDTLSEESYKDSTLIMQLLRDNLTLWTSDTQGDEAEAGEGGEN
14-3-3ζ (UniProt P63104), sequence (P63104 whole entry): as above
14-3-3ζ (from UniProt P63104) 14-3-3ζ pSer58 (genetic code expansion), sequence (P63104 whole entry, change not shown): as the sequence (P63104 whole entry) above
14-3-3ζ (from UniProt P63104), sequence (P63104 whole entry): as above
HSPB6 (Homo sapiens), sequence (O14558 whole entry): as the sequence (O14558 whole entry) above
FLAG-CRBN (human), sequence (Q96SW2 whole entry): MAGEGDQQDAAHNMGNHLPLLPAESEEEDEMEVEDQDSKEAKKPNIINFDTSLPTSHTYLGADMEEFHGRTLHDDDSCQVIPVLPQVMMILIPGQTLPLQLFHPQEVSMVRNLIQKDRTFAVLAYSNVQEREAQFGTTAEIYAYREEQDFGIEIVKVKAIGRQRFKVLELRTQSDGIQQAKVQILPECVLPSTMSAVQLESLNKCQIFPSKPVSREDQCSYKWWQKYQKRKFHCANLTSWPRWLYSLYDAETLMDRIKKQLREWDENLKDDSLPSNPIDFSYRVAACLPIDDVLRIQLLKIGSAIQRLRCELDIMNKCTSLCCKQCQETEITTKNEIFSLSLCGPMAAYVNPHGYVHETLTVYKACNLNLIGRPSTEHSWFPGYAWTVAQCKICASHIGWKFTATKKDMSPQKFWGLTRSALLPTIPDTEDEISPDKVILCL

In the experiment with FLAG-CRBN (human), “myc-14-3-3ζ nhpSer58 (from UniProt P63104 1-245) (natural protein)” registered a fold co-immunoprecipitated relative to myc-14-3-3ζ WT or pSer58 of 10 fold.

For 14-3-3ζ (from UniProt P63104), in the experiment with HSPB6 (Homo sapiens), the dissociation constant (Kd) (usually the concentration at which binding is half-saturated) is 560 nM.

In the case of “14-3-3ζ (from UniProt P63104) 14-3-3ζ pSer58 (genetic code expansion)”, the “binding against the reference” value with 14-3-3ζ [1] is “lost”.

For “HSPB6 (small heat shock protein B6) (from UniProt O14558) HSPB6 pSer16 (genetic code expansion)”, in the experiment with 14-3-3ζ [2], the “binding against the reference” value is on record as “gained”.

Take “14-3-3ζ WT (from UniProt P63104 1-230) (natural protein)”: the stoichiometry N (14-3-3ζ chains per HSPB6 chain (2:2)) with HSPB6-nhpSer16 [3] and with HSPB6-pSer16 [4] was 1 in each case. In addition, the Kd with HSPB6-nhpSer16 [5] stood at 120 nM; with HSPB6-pSer16 [6], 92 nM. In addition, the stoichiometry N (commonly a count of units in the complex or per binding partner) with 14-3-3ζ WT (human) is 2.
